Entries after “also recorded” stand apart in the source; their conditions may differ. Where no end group is shown, it is not given here.
Experiments:
[1] = molecular target: T1, C6 cells membrane (DOR) (Rattus norvegicus, UniProt P33533); experiment: Microscope validation of GNP-peptide binding to C6 cells; assay type: cell-based
T1 construct: delta opioid receptor expressed by the C6 cells; endogenous in cells; host or cells: C6 glioma cells
Protocol: (§1) C6 cells (1×10^6) were cultured in 5 ml glucose-free DMEM medium containing 5% FCS, 0.5% Penicillin and 0.5% Glutamine. Then, excess amounts of GNPs were added and incubated with cells for 30 minutes at 37° C.
Fluorescent coated (Rhodamine B, Sigma, Israel) GNP-peptidl were incubated with C6 cells for 30 min at 37° C. The cells were subsequently washed three times in PBS prior to confocal imaging using Leica TCS SP5 with Acousto-Optical Beam Splitter microscope to acquire fluorescent and bright field images.
A Nikon i50 microscope (Tokyo, Japan) equipped with a hyperspectral imaging system (CRI, USA) was used to obtain dark-field images (20× magnification) in order to assess nanoparticle uptake.

[2] = tested on: Sprague-Dawley rats; experiment: Cue-induced cocaine-seeking behavioral test after forced abstinence
[3] = molecular target: T2, δ-opioid receptor (Rattus norvegicus, UniProt P33533); experiment: Competitive flow cytometry assay of free peptides against DSLET-FITC on C6 cells; assay type: binding; conditions: 100 nM peptide, 3.5 nM DSLET-FITC
T2 construct: delta opioid receptor expressed by the C6 cells; endogenous in cells; host or cells: C6 glioma cells
T2 sequence (P33533 whole entry): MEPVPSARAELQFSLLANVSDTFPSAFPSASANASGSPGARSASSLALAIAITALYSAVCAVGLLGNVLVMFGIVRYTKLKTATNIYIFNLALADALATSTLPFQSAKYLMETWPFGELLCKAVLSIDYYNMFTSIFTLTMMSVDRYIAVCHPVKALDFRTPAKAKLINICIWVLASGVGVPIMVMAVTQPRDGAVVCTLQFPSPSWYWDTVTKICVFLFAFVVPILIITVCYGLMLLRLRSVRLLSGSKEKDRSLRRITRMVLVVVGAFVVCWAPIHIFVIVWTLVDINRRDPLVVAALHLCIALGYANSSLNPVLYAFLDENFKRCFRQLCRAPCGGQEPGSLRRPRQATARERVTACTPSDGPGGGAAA
Protocol: (§2) The derived peptides were synthesized (Pepmic, Suzhou, China). The binding specificity of the peptides was tested in a competitive assay. C6 cells were grown to 70-80% confluence and removed from the culture, centrifuged and re-suspended to 2×10^6/ml in PBS/0.05% FBS.DSLET-FITC (3.5 nM) was mixture with 0, 3.5, 10, 50 or 100 nM of peptide. In parallel, 2 nM DAMGO-FITC was mixture with 0, 2, 10, 50 or 100 nM of peptide. These mixtures (500 μl) were added to the cells for 5 min at 37° C. Then 500 μl PBS was added and the tubes centrifuge for 5 min at 4250 rpm. The cell pellet was re-suspended in PBS and analyzed by flow cytometry.

[4] = molecular target: T3, δ-opioid receptor (DOR) expressed on C6 cells (Rattus norvegicus, UniProt P33533); experiment: Intracellular cyclic AMP in C6 cells (Direct cAMP kit / cAMP ELISA); assay type: cell-based; conditions: for reduction of cAMP levels: 100 nM, C6 cells
T3 construct: delta opioid receptor expressed by the C6 cells; endogenous in cells; host or cells: C6 glioma cells
T3 sequence (P33533 whole entry): as above
Protocol: To test the pharmacological function of the peptides showing positive competitive binding versus the DSLET analogue and negative competition versus the DMGO analogue were tested for agonistic activity using the Direct cAMP kit (Enzo). The analogue DSLET was used as a positive control.

[5] = molecular target: T4, μ-opioid receptor (Rattus norvegicus, UniProt P33535); experiment: Competitive flow cytometry assay of free peptides against DAMGO-FITC on C6 cells; assay type: binding; conditions: 2 nM DAMGO-FITC
T4 construct: 50% expressed the μ-opioid receptor; endogenous in cells; host or cells: C6 glioma cells
T4 sequence (P33535 whole entry): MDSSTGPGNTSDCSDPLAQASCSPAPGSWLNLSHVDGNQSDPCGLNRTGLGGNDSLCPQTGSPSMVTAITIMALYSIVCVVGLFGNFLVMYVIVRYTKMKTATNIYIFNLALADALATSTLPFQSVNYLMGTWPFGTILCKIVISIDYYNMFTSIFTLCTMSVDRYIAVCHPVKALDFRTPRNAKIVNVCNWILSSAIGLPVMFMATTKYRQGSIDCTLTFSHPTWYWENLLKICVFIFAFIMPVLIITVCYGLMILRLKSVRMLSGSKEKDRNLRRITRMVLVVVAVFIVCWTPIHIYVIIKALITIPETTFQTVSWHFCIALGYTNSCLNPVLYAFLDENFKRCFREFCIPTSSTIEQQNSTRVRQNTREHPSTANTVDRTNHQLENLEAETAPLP
Protocol: as §2

[6] = molecular target: T5, delta opioid receptor expressed by the C6 cells (Rattus norvegicus, UniProt P33533); experiment: FACS analysis of GNP-peptide binding to C6 cells
T5 construct: delta opioid receptor expressed by the C6 cells; endogenous in cells; host or cells: C6 glioma cells
T5 sequence (P33533 whole entry): as the sequence (P33533 whole entry) above
Protocol: as §1
Cells were incubated with GNP-peptide for 15 min at 37° C. and then washed with PBS, followed by trypsin treatment. Then, cells were centrifuged twice (5 min in 1000 rpm) to wash out unbound nanoparticles. Cells were analyzed for cell-associated NPs by Flow Cytometry (FACS; Cellquest software; Becton-Dickinson & Co., Franklin Lakes, N.J.).

T1 sequence (P33533 whole entry): as above

In the case of `Oc1ccc2c3c1O[C@H]1c4[nH]c5ccccc5c4C[C@@]4(O)[C@@H](C2)N(CC2CC2)CC[C@]314` [naltrindole, reference compound], the “binding of GNP conjugated peptide 1 to the cells membrane after blocking the DOR” value [1] is reported as “significant decrease in the binding; also recorded: prevented the binding of the peptide to the cells membrane” and the cue-induced cocaine-seeking behavior ([2]; intra-NAc infusion, 1 μg, day 1 of forced abstinence) is reported as “increased cue-induced cocaine-seeking behavior”.

With CTAP [reference compound] the cue-induced cocaine-seeking behavior ([2]; intra-NAc injection, 3 μg and 30 ng, 1 day or 30 days of forced abstinence) was “no behavioral effect”.

In the case of DPDPE [reference compound], the “active lever presses (seeking behavior) vs CSF group” value ([2]; injected into the NAc once after 30 days of abstinence, observed at days 30 and 60) is reported as “reduced seeking behavior”.

In the case of IIAGEYKQMLTL [Peptide 2], the “maximum inhibition of DSLET-FITC binding” value [3] is reported as 45%, the “reduction of cAMP levels” value [4] is reported as roughly 80% and the “inhibition of DAMGO-FITC binding to the μ-opioid receptor” value [5] is reported as “neither Peptide 1 or 2 inhibited binding”.

With NGNDRTDQMPLP [Peptide 1] the “maximum inhibition of DSLET-FITC binding” value [3] was 48%, the “reduction of cAMP levels” value [4] was roughly 80% and the “inhibition of DAMGO-FITC binding to the μ-opioid receptor” value [5] was “neither Peptide 1 or 2 inhibited binding”. For the same compound, the “active lever presses vs CSF group” value ([2]; injection into the NAc, two doses) was “decreased active lever presses”.

For “peptide 1 conjugated to gold nanoparticles: 20 nm PEG-coated gold nanoparticles with the peptide covalently conjugated to the carboxylic group of SH-PEG-COOH (NGNDRTDQMPLP; also: covalently conjugated to carboxyl of SH-PEG-COOH on 20 nm PEG-coated gold nanoparticles, site not given here)”, the “binding to the C6 cells membrane (microscope)” value ([1]; listed as Gold nanoparticle (GNP) conjugated peptide 1) was “bind mainly the C6 cells membrane”, the “binding to the C6 cells membrane (microscope)” value ([1]; listed as Peptide 1 conjugated to GNP) was “increased binding to the C6 cells membrane” and the “binding to the delta opioid receptor on C6 cells by FACS relative to vehicle” value [6] was “higher affinity and exhibited better binding to the cells relative to vehicle”. For the same compound, the “cAMP decreased to % from the initiation state” value ([4]; GNP conjugated to peptide 1, C6 cells) was 80.70%, the “active lever presses vs CSF group” value ([2]; GNP conjugate, injection into the NAc) was “decreased active lever presses” and the “active lever presses vs CSF group” value ([2]; GNP conjugate, intra-nasal, tested two hours later) was “Significantly less active lever presses”.

— US10421785B2, “Delta receptor agonist peptides and use thereof” (BAR-ILAN UNIVERSITY, priority 2016, dated 2019)
